Data reported in patent US20050221381A1, “Method for isolating ligands” (priority 2002, published 2005).
Read-outs that look alike come from different tables or passages of the source.

Experiments:
[1] = system: HLA-DRB1*0401-transgenic mice splenocytes; assay type: in vivo, mouse; parameters: key to DRB1*0401 mice total SC (T cell response) / DRB1*0401 mice CD4+ (T cell response): −: no binding/T cell response; +/−: weak binding/T cell response; +: intermediate binding/T cell response; ++: strong binding/T cell response
[2] = target: T1, soluble DRB1*0404 molecules (Homo sapiens, UniProt P01903+P01911, A100R/A169T/F76Y/I96L/K127E/L162R/M171V/N62H/P40V/Q125Y/R42H/S133A/S149N/S66Y/V209L/W38E); test: Peptide binding assay, SDS-stability assay; parameters: key: −: no binding/T cell response; +/−: weak binding/T cell response; +: intermediate binding/T cell response; ++: strong binding/T cell response; conditions: soluble DRB1*0404 molecules
T1 construct: Soluble HLA class I A*0201 and HLA class II DRA1*0101/DRB1*0101/Ii, DRA1*0101/DRB1*0401/Ii and DRA1*0101/DRB1*0404/Ii molecules were expressed in SC-2 cells; made in house; host or cells: SC-2 cells

[3] = system: DRB1*0401, DRB1*0101, DRB1*0404, DRB1*0701 and DRB1*1101; test: Binding to soluble HLA molecules of different allels (promiscuity); parameters: species or system human
Description: In peptide binding reactions HLA molecules were used in a concentration of 0.5 μM, and each single peptide was added in 10-fold molar excess (5 μM) if not mentioned differently. […] The reaction was performed in PBS buffer (pH 7.4) at room temperature for 48 hours in the presence of a protease inhibitor cocktail (Roche) and 0.1% octyl-b-D-glucopyranoside (Sigma).
Peptide binding was evaluated in an SDS-stability assay (Gorga et al., 1987): trimeric HLA class II ab-peptide complexes are resistant to SDS and consequently appear as ˜60 kDa band in SDS-PAGE Western blot analysis. Individual HLA class II α and β chains not stabilized by a peptide binding with intermediate to high affinity migrate as ˜35 kDa and ˜30 kDa bands, respectively.
(§1) The binding affinities to DRB1*0701 and DRB1*1101 were tested by a peptide-competition assay (Reay et al., 1992). Briefly, binding of the biotinylated CLIP peptide (reference peptide) has been used for monitoring of HLA:peptide complex formation. […] In the case of lower affinity peptides they should be added in excess to the reference peptide to compete for occupancy of HLA binding grove. […] Alternatively, comparing of the amount of reference peptide bound to HLA molecules in the presence or absence of competitor peptide one can determine the binding activity of the peptide of interest.
(§2) In the present peptide-competition assay conditions of peptide binding were similar to described above. Soluble HLA molecules were used in the concentration of 0.5 μM and biotinylated CLIP was added to all samples in the final concentration of 2 μM. Competitor peptides were added in three different concentrations: 0.25, 5 and 100 μM. Binding reaction was performed in PBS buffer (pH 7.4) for 18 hours at 37° C. […] Briefly, MaxiSorb 96-well plates (Nunc, Denmark) were coated with mouse anti-αβ antibody L243 (purified from ATCC HB-55) by overnight incubation with 50 μl of 10 μg/ml dilution in PBS at 4° C. Non-specific binding to the plastic was blocked by incubation with T-PBS containing 3% of BSA for 2 hours at 37° C. and binding reactions were then “captured” for 2 hours at room temperature. […] The optical density at 405 nm was measured on a microplate reader SUNRISE (Tecan).
Some of the identified DRB1*0401 binding peptides, as well as others chosen by prediction algorithms were also tested for binding to soluble HLA molecules of different allels: DRB1*0101, DRB1*0404, DRB1*0701 and DRB1*1101 (Table 3).

[4] = target: T2, soluble DRB1*0101 molecules (Homo sapiens, UniProt P01903+P01911, A100R/D57E/F55L/F60I/F76Y/I96L/L162R/M171V/P40L/Q125E/R42F/V115G/Y59C); test: Peptide binding assay, SDS-stability assay; parameters: key: −: no binding/T cell response; +/−: weak binding/T cell response; +: intermediate binding/T cell response; ++: strong binding/T cell response; conditions: soluble DRB1*0101 molecules
T2 construct: Soluble HLA class I A*0201 and HLA class II DRA1*0101/DRB1*0101/Ii, DRA1*0101/DRB1*0401/Ii and DRA1*0101/DRB1*0404/Ii molecules were expressed in SC-2 cells; made in house; host or cells: SC-2 cells

[5] = target: T3, soluble DRB1*0401 molecules (DR4) (Homo sapiens, UniProt P01903+P01911, A100K/A169T/F76Y/I96L/K127E/L162R/M171V/N62H/P40V/Q125Y/R42H/S133A/S149N/S66Y/V115G/V209L/W38E); assay type: binding; parameters: key to Binding to DRB1 *0401: −: no binding/T cell response; +/−: weak binding/T cell response; +: intermediate binding/T cell response; ++: strong binding/T cell response; conditions: soluble DRB1*0401 molecules
T3 construct: Soluble HLA class I A*0201 and HLA class II DRA1*0101/DRB1*0101/Ii, DRA1*0101/DRB1*0401/Ii and DRA1*0101/DRB1*0404/Ii molecules were expressed in SC-2 cells; made in house; host or cells: SC-2 cells

[6] = target: T3, soluble DRB1*0401 molecules (DR4); assay type: binding; parameters: key: −: no binding; +/−: weak binding; +: intermediate binding; ++: strong binding; conditions: individual pp65 15mer, SDS-stability assay
DRB1*0701 = DRB1*0701 (Homo sapiens, UniProt P01903+P01911, A100R/A102G/A103Q/D57E/D86V/E43K/F76Y/K127E/L162R/M171V/P40G/Q125H/Q99D/R33Q/R42Y/R54Q/S133A/S66F/T210M/V115G/Y107V/Y59L/Y89S); test: Peptide-competition assay with biotinylated CLIP peptide (ELISA); assay type: binding; parameters: key: −: no binding/T cell response; +/−: weak binding/T cell response; +: intermediate binding/T cell response; ++: strong binding/T cell response; conditions: DRB1*0701
Description: as §1, §2

DRB1*1101 = DRB1*1101 (Homo sapiens, UniProt P01903+P01911, A100R/A169T/A87E/I96F/K41T/L162R/M171V/P40S/Q125H/Q178H/Q39Y/Q99D/R42S/S66Y/T262R/V115G/W38E); test: as above; assay type: binding; parameters: key: −: no binding/T cell response; +/−: weak binding/T cell response; +: intermediate binding/T cell response; ++: strong binding/T cell response; conditions: DRB1*1101
Description: as §1, §2

CD4+ T cells = conditions: healthy, CMV-exposed human subjects; partially or fully identical sequences; cited from earlier work
[7] = system: PBMC (CD4 and CD8 positive T-cell compartments); test: Intracellular IFN-γ staining combined with surface staining for CD4, CD8, CD69 (FACS); assay type: cell-based, human; conditions: donor 10687, peptide 80 μg/ml (FIG. 11)
Description: To distinguish between CD8-positive CTL mediated or CD4-positive HTL mediated reactivity, intracellular cytokine staining combined with staining for surface markers was performed: after thawing, PBMNC were kept overnight (37° C., 5% CO2) in RPMI1640 with 10% human serum type AB (BioWhittaker). Next day aliquots of 2 million PBMNC were incubated with peptide (80 μg/ml) or Concanavalin A (SIGMA). After 1 h, 10 μg/ml brefeldin A (SIGMA) were added and incubation was continued for 5 hours. Surface staining for CD4 (phycoerythrin), CD8 (cychrome), CD69 (allophycocyanine) was done with antibodies labelled as indicated (Pharmingen, San Diego, Calif., USA). After fixation with 1% para-formaldehyde in PBS, cells were permeabilized by incubating for 15 min in 0.5% BSA/0.1% Na-azide/0.1% saponin in PBS. Intracellular cytokines were stained with anti-IFN-γ (FITC) antibody 4S.B3 (Pharmingen). Samples (100,000 events in the lymphocyte gate) were read on a FACScalibur (Becton Dickinson).
FIG. 11: Confirmation of simultaneous CD4+ and CD8+ T-cell responses against CMVpp65 15mers 469, 470 by intracellular IFN-γ staining. PBMC from 2 donors (10687, 10788) were stimulated with either ConA as positive control (1st column), 15mers containing both putative class I and class II epitopes (columns 2 and 3) or medium as negative control (right column). Cells were stained for intracellular IFN-γ (x-axis) or surface the T-cell differentiation markers CD4 or CD8 (y-axis). Percentage in upper-right quadrant is indicated, numbers significant over background are shown boldface.

[8] = target: T2, soluble DRB1*0101 molecules; test: Peptide binding assay, SDS-stability assay; parameters: key: +++: high binding affinity; ++: moderate binding affinity; +: low binding affinity; −: no binding; conditions: individual pp65 15mer
[9] = target: T3, soluble DRB1*0401 molecules (DR4); assay type: binding; parameters: key: +++: high binding affinity; ++: moderate binding affinity; +: low binding affinity; −: no binding; conditions: individual pp65 15mer, SDS-stability assay
[10] = system: PBMC from CMV seropositive donors; assay type: cell-based, human
[11] = target: T1, soluble DRB1*0404 molecules; test: Peptide binding assay, SDS-stability assay; parameters: key: +++: high binding affinity; ++: moderate binding affinity; +: low binding affinity; −: no binding; conditions: individual pp65 15mer
[12] = IFN-gamma ELISpot, enriched CD4+ fraction of splenocytes of HLA-DR4 transgenic mice vaccinated with the longer peptide, ex vivo re-stimulation
[13] = IFN-gamma ELISpot, total splenocytes of HLA-DR4 transgenic mice vaccinated with the longer peptide, ex vivo re-stimulation

| Sequence | DRB1*0401 mice CD4+ (T cell response) [1, 12] | DRB1*0401 mice total SC (T cell response) [1, 13] | Binding to DRB1 *0401 [5] | Binding to DRB1*0401 [6] | Specific CD4+ T cells response described earlier (CD4+ T cells) | Binding to DRB1*0101 [8] | Binding to DRB1*0401 [9] | other results |
| --- | --- | --- | --- | --- | --- | --- | --- | --- |
| EPDVYYTSAFVFPTK [Peptide 177] | + | + | + | + | capable to evoke specific CD4+ T cells response |  |  | Binding to DRB1*0404 [2]: −; Affinity for several HLA molecules (promiscuity) [3]: affinity for at least two HLA molecules; Binding to DRB1*0101 [4]: ++; Binding to DRB1 *0701 (DRB1*0701): −; Binding to DRB1 1101 (DRB1*1101): + |
| LKYQEFFWDANDIYR [Peptide 508] | ++ | ++ | +/− | +/− | capable to evoke specific CD4+ T cells response |  |  |  |
| AGILARNLVPMVATV [Peptide 489] |  |  |  |  |  |  |  | Intracellular IFN-γ in CD4 and CD8 positive T-cell compartments [7]: only CD8 mediated IFN-γ secretion |
| QWKEPDVYYTSAFVF [Peptide 174] | +/− | +/− | − |  |  | − | − |  |
| EPMSIYVYALPLKML [Peptide 107] |  |  |  |  |  | − | − |  |
| IYVYALPLKMLNIPS [Peptide 111] |  |  |  |  |  | − | − |  |
| GGAIAGASTSAGRKR [Peptide 423] |  |  |  |  |  |  | − | Induction of IFN-gamma secretion in T cells / PBMC from CMV seropositive donors [10]: can induce functional, IFN-gamma secreting T cells in humans; Binding to DRB1*0404 [11]: − |
| PQYSEHPTFTSQYRI [Peptide 361] |  |  |  |  | capable to evoke specific CD4+ T cells response |  |  | DRB1*0401 mice CD4+ (T cell response) ([1]; mouse, in vivo): ++; DRB1*0401 mice total SC (T cell response) ([1]; mouse, in vivo, sc): + |
| NLKYQEFFWDANDIY [Peptide 507] | + | ++ | +/− | +/− | capable to evoke specific CD4+ T cells response |  |  | Binding to DRB1*0404 [2]: −; Binding to DRB1*0101 [4]: −; Binding to DRB1 *0701 (DRB1*0701): −; Binding to DRB1 1101 (DRB1*1101): − |
| TDEDSDNEIHNPAVF [Peptide 468] |  |  |  |  |  |  | − | Binding to DRB1*0404 [11]: − |
| KEPDVYYTSAFVFPT [Peptide 176] | + | + | +/− | +/− |  | − |  |  |
